Source: patent US20230151091A1 (NEW YORK UNIVERSITY, published 2023)

T1: mouse MuSK (mouse, UniProt Q61006 22-494, limits assumed)
T1 construct: Coated on ELISA plates or on the Biacore chip; also called full length mouse MuSK; mouse MuSK (in house produced in HEK293 cells)
T1 sequence (looked up): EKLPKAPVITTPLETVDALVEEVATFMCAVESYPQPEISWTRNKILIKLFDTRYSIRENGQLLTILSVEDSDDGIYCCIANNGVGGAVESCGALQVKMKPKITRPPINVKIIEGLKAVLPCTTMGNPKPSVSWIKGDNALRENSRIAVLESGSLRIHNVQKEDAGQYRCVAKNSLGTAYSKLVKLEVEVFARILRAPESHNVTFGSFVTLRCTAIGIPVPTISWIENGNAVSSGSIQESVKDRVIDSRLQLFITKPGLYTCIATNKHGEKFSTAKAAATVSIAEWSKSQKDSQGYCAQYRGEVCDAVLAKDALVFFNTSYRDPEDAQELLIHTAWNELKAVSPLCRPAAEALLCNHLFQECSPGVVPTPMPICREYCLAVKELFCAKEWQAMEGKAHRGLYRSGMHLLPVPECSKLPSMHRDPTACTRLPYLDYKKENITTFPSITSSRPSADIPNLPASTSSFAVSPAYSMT

T2: rat MuSK (rat, UniProt Q62838 22-494, limits assumed)
T2 construct: Coated on Biacore chip (200RU) or ELISA plate
T2 sequence (looked up): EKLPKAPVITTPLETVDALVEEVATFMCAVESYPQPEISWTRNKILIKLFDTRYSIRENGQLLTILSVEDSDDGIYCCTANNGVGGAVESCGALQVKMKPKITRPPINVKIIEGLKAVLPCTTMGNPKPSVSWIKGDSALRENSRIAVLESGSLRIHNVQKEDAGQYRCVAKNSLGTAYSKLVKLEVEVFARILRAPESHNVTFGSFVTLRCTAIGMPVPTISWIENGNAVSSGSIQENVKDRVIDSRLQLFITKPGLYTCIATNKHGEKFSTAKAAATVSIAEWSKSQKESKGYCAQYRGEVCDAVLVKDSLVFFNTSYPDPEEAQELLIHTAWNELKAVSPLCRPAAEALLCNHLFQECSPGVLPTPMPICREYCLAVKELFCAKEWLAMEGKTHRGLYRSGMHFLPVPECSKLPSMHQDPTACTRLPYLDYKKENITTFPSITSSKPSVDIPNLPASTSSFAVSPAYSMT

T3: human MuSK (human, UniProt O15146 24-495)
T3 construct: Recombinant protein coated on ELISA plates (R&D Systems cat. 10189-MK) or on the Biacore chip; also called human muscle-specific tyrosine protein kinase; full length human MuSK
T3 sequence: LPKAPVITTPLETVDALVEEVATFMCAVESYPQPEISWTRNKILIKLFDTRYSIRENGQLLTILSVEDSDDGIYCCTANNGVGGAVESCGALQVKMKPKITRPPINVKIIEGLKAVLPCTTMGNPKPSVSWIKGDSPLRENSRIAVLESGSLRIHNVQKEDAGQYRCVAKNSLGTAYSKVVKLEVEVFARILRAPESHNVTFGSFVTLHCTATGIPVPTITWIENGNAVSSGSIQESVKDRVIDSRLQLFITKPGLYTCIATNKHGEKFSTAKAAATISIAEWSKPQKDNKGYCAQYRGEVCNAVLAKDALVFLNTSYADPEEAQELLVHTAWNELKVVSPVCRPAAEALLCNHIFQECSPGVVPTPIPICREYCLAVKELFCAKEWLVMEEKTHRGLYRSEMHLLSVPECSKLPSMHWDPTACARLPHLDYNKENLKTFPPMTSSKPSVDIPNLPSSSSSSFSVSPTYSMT


Legend:
[1] = target: T1, mouse MuSK; test: Biacore, MuSK on chip (200RU), 66.7 nM mAb, dissociation pH 7.4
How it was run: (§1)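 Sensor chip coated in parallel with cynomolgus monkey, rat and mouse MuSK. Antibody applied at a single concentration; association and dissociation kinetic parameters calculated from the sensorgrams.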

[2] = target: cynomolgus monkey MuSK (cynomolgus monkey, UniProt A0A2K5USF6 24-487); test: as above
Chain of cynomolgus monkey MuSK (A0A2K5USF6 entry or part of it): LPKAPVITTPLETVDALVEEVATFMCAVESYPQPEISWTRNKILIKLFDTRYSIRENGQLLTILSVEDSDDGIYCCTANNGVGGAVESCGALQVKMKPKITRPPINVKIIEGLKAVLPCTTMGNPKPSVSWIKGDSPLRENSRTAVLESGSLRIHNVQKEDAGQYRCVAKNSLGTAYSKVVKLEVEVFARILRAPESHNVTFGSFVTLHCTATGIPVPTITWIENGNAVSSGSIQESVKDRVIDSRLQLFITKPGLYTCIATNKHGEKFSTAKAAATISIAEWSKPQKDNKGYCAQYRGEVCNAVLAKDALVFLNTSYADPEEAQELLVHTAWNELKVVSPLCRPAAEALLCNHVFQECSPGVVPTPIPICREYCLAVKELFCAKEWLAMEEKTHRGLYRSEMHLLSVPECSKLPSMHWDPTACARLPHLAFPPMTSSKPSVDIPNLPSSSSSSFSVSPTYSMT
How it was run: as §1

[3] = target: T2, rat MuSK; test: as above
How it was run: as §1

[4] = target: T1, mouse MuSK; test: Biacore, MuSK on chip (200RU), mAb dilution series
From the text: (§2) For affinity determination, a CMS chip was coated with either human or mouse MuSK (200RU) and a dilution series of the antibodies (mAbs and Fabs) was applied in order to be able to calculate the affinity.

[5] = target: T3, human MuSK; test: Biacore, MuSK on chip (200RU), mAb dilution series
From the text: as §2

[6] = target: T1, mouse MuSK; test: Biacore T200, off rate at pH 5.5 against pH 7.4
How it was run: (§3)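 Surface plasmon resonance was run with both human and mouse MuSK immobilized on the sensor chip. Fab association was always performed at pH 7.4 before the dissociation phase. Kinetic parameters were calculated from the binding curves.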

[7] = target: T3, human MuSK; test: Biacore T200, off rate at pH 5.5 against pH 7.4
How it was run: as §3

Row | R0 [1] | koff [1] | kon [1] | R0 [2] | koff [2] | kon [2] | R0 [3] | koff [3] | kon [3] | Kd [4] | Kd [5] | Ratio pH 5.5/7.4 of off rate [6] | Ratio pH 5.5/7.4 of off rate [7] | Binder
1 | 195 RU | 0.00061 s⁻¹ | 1.13e+06 M⁻¹ s⁻¹ | 143 RU | 0.00097 s⁻¹ | 790000 M⁻¹ s⁻¹ | 162 RU | 0.00186 s⁻¹ | 1.14e+06 M⁻¹ s⁻¹ | 0.134 nM | 0.145 nM | – | – | 3B2 (antibody, V domains shown, human IgG1 with the LALA mutations (L234A, L235A); produced in HEK293 cells; also called 3B2 mAb; parental 3B2 Ab) VH: ELQLVESGGGLVQPGGSLRLSCAASGFTFDDYGMSWVRQAPGKGLEWVSAIPWNGGSTYYKESVKGRFTISRDNAKKTLYLQMNSLKSEDTAVYYCAKRSGRIAFGALDAWGQGTLVTVSS VL: QAVVTQEPSLSVSPGGTVTLTCGLSSGSVTSSNYPDWYQQTPGQAPRGLIYSTDSRHSGVPSRFSGSISGNKAALTITGAQSEDEADYYCGLYMYSGSKNYVFGGGTKLTVL
2 | – | – | – | – | – | – | – | – | – | – | – | 1 | 0.6 | X2 Fab (Fab, V domains shown, Fab format) VH: EVQLVESGGGLVQPGGSLRLSCAASGFTVSSSSIHWVRQAPGKGLEWVASISSSYGSTSYADSVKGRFTISADTSKNTAYLQMNSLRAEDTAVYYCARSEGDRYVSGYMGMDYWGQGTLVTVSS VL: DIQMTQSPSSLSASVGDRVTITCRASQSVSSAVAWYQQKPGKAPKLLIYSASSLYSGVPSRFSGSRSGTDFTLTISSLQPEDFATYYCQQSGVWLITFGQGTKVEIK
3 | – | – | – | – | – | – | – | – | – | – | – | 4.4 | 3.5 | X3 Fab (Fab, V domains shown, Fab format) VH: EVQLVESGGGLVQPGGSLRLSCAASGFTISSSSIHWVRQAPGKGLEWVASISSSSGYTYYADSVKGRFTISADTSKNTAYLQMNSLRAEDTAVYYCARSWYEMWMSGYFGFDYWGQGTLVTVSS VL: DIQMTQSPSSLSASVGDRVTITCRASQSVSSAVAWYQQKPGKAPKLLIYSASSLYSGVPSRFSGSRSGTDFTLTISSLQPEDFATYYCQQSSSSLITFGQGTKVEIK
